# Data taken from patent US20170327854A1, “METHODS FOR CELLOBIOSAN UTILIZATION” (Alliance for Sustainable Energy, LLC, priority 2015, published 2017).
# B1: bgl1: A. niger β-glucosidase, GH3, GenBank AJ132386, SEQ ID NO: 3 (protein)
# chain: MRFTLIEAVALTAVSLASADELAYSPPYYPSPWANGQGDWAQAYQRAVDIVSQMTLDEKVNLTTGTGWELELCVGQTGGVPRLGVPGMCLQDSPLGVRDSDYNSAFPAGMNVAATWDKNLAYLRGKAMGQEFSDKGADIQLGPAAGPLGRSPDGGRNWEGFSPDPALSGVLFAETIKGIQDAGVVATAKHYIAYEQEHFRQAPEAQGFGFNISESGSANLDDKTMHELYLWPFADAIRAGAGAVMCSYNQINNSYGCQNSYTLNKLLKAELGFQGFVMSDWAAHHAGVSGALAGLDMSMPGDVDYDSGTSYWGTNLTISVLNGTVPQWRVDDMAVRIMAAYYKVGRDRLWTPPNFSSWTRDEYGYKYYYVSEGPYEKVNQYVNVQRNHSELIRRIGADSTVLLKNDGALPLTGKERLVALIGEDAGSNPYGANGCSDRGCDNGTLAMGWGSGTANFPYLVTPEQAISNEVLKHKNGVFTATDNWAIDQIEALAKTASVSLVFVNADSGEGYINVDGNLGDRRNLTLWRNGDNVIKAAASNCNNTIVVIHSVGPVLVNEWYDNPNVTAILWGGLPGQESGNSLADVLYGRVNPGAKSPFTWGKTREAYQDYLVTEPNNGNGAPQEDFVEGVFIDYRGFDKRNETPIYEFGYGLSYTTFNYSNLEVQVLSAPAYEPASGETEAAPTFGEVGNASDYLYPSGLQRITKFIYPWLNGTDLEASSGDASYGQDSSDYLPEGATDGSAQPILPAGGGPGGNPRLYDELIRVSVTIKNTGKVAGDEVPQLYVSLGGPNEPKIVLRQFERITLQPSEETKWSTTLTRRDLANWNVEKQDWEITSYPKMVFVGSSSRKLPLRASLPTVH
# modifications: Aspergillus niger
# B2: bglA: T. maritima β-glucosidase, GH1, GenBank CAA52276.1, SEQ ID NO: 5 (protein, listed as Thermotoga maritima)
# chain: MNVKKFPEGFLWGVATASYQIEGSPLADGAGMSIWHTFSHTPGNVKNGDTGDVACDHYNRWKEDIEIIEKLGVKAYRFSISWPRILPEGTGRVNQKGLDFYNRIIDTLLEKGITPFVTIYHWDLPFALQLKGGWANREIADWFAEYSRVLFENFGDRVKNWITLNEPWVVAIVGHLYGVHAPGMRDIYVAFRAVHNLLRAHARAVKVFRETVKDGKIGIVFNNGYFEPASEKEEDIRAVRFMHQFNNYPLFLNPIYRGDYPELVLEFAREYLPENYKDDMSEIQEKIDFVGLNYYSGHLVKFDPDAPAKVSFVERDLPKTAMGWEIVPEGIYWILKKVKEEYNPPEVYITENGAAFDDVVSEDGRVHDQNRIDYLKAHIGQAWKAIQEGVPLKGYFVWSLLDNFEWAEGYSKRFGIVYVDYSTQKRIVKDSGYWYSNVVKNNGLED
# B3: abg: Agrobacterium sp. β-glucosidase, GH1, GenBank AAA22085.1, SEQ ID NO: 6 (protein, listed as Agrobacterium sp.)
# chain: MTDPNTLAARFPGDFLFGVATASFQIEGSTKADGRKPSIWDAFCNMPGHVFGRHNGDIACDHYNRWEEDLDLIKEMGVEAYRFSLAWPRIIPDGFGPINEKGLDFYDRLVDGCKARGIKTYATLYHWDLPLTLMGDGGWASRSTAHAFQRYAKTVMARLGDRLDAVATFNEPWCAVWLSHLYGVHAPGERNMEAALAAMHHINLAHGFGVEASRHVAPKVPVGLVLNAHSAIPASDGEADLKAAERAFQFHNGAFFDPVFKGEYPAEMMEALGDRMPVVEAEDLGIISQKLDWWGLNYYTPMRVADDATPGVEFPATMPAPAVSDVKTDIGWEVYAPALHTLVETLYERYDLPECYITENGACYNMGVENGQVNDQPRLDYYAEHLGIVADLIRDGYPMRGYFAWSLMDNFEWAEGYRMRFGLVHVDYQTQVRTVKNSGKWYSALASGFPKGNHGVAKG
# Key:
# [1] = β-Glucosidase mediated cleavage of cellobiosan (HPLC); format: biochemical; conditions: cellobiosan 2 mg/mL, 2.5 to 20 μg of enzyme (four enzyme loadings), 40° C., 90 minutes, FIG. 5
# Description: (§1) Following the β-glucosidase reaction period, the tubes were placed on ice, filtered through a 0.2 μm filter and analyzed via High-Performance Liquid Chromatography (HPLC; Agilent 1100 series system (Agilent USA, Santa Clara, Calif.)) using a Shodex SP0810 carbohydrate column with de-ashing guard cartridges (BioRad Laboratories, Hercules, Calif.) run at 85° C. with ultra-pure water as the isocratic mobile phase at a flow rate of 0.6 mL/min. A refractive index detector was used for compound detection. By-products were identified by co-elution at the same retention time with pure compounds. Standard curves for substrate (cellobiosan) and products (glucose and levoglucosan) were also generated in order to quantify results. Additionally, enzymes were analyzed via HPLC in buffer alone (without cellobiosan) to ensure no carry-over products inherent to the enzyme preparations.
# Each reaction was set up in 1.5 mL microcentrifuge tubes using cellobiosan at a concentration of 2 mg/mL in the following buffers: 50 mM sodium maleate, pH 6.5 (T. maritima and Agrobacterium sp.), and 100 mM sodium acetate, pH 5.0 (P. chrysosporium and A. niger). For each reaction, 2.5 to 20 μg of enzyme was loaded and the total reaction volume was 400 μL. An additional enzyme-free reaction was run simultaneously to ensure cellobiosan cleavage was enzyme-dependent. Reactions were incubated at 40° C. using a dry-block for 90 minutes. In a separate reaction evaluating the substrate concentration, 0.125 μM of purified A. niger β-glucosidase was incubated at 40° C. in a 96-well microtiter plate with 0, 0.5, 1, 2, 4, 8, 16 or 32 mM cellobiose or cellobiosan. Reactions were initiated by the addition of enzyme and quenched by boiling in a thin walled PCR tube at 0.5, 1, 5 and 10 minutes.
# as §1, with “the” for “the β-glucosidase”, “periods,” for “period,”, “Agilent1100” for “Agilent 1100”, “ml min^−1.” for “mL/min.”, “(without the addition of” for “(without”
# [2] = test system: P. putida strain FJPO3; experiment: Growth and mcl-PHA production of strain FJPO3 on levoglucosan; format: cell-based, Pseudomonas putida
# Source text: The levoglucosan kinase (lgk) gene from Lipomyces starkeyi was codon optimized using Gene Designer software from DNA 2.0 and synthesized as a gBlock (SEQ ID NO:1). This fragment was cloned into plasmid pMFL76, which is derived from the commercial PCR-Blunt II Topo vector (ThermoFisher), with the addition of two 1-kb genomic regions located in proximity of the rpoS region of the genome from Pseudomonas putida KT2440 to enable homologous recombination mediated genomic integration into strain KT2440. The Ptac-lgk was inserted in between these 1 kb homology regions and transformed into KT2440. A single kanamycin-resistant transformant was isolated and growth in M9 levoglucosan was confirmed, to generate strain FJPO3.
# P. putida produces medium chain-length polyhydroxy-alkanoates (mcl-PHAs), which are high-value polymers that can serve as plastics, adhesive precursors, and as precursors to chemical building blocks or hydrocarbons. As mcl-PHAs represent a potential target to generate from pyrolytic sugars, the generation of mcl-PHAs by P. putida using levoglucosan as its sole carbon source as investigated.
# Most growths were in a modified formulation of M9 minimal salts. Briefly, 6.78 g Na2PO4 (anhydrous), 3 g KH2PO4, and 0.5 g NaCl were dissolved in 750 mL deionized H2O. The pH was adjusted to 7.4 with 10 N NaOH and brought to 900 mL with H2O. The solution was autoclaved for 15 minutes at 121° C. and allowed to cool. […]
# Growth curves were generated using a Bioscreen C automated microbiology growth curve analysis system from Growth Curves USA. […] Spectrophotometric blanks were subtracted from the measured values and each growth curve represents the average of three independent cultures. The maximum specific growth rate (μmax) was calculated as the maximum slope of the log phase of the growth curve over any given 4 hour period during the course of the experiment. […]
# One mL of saturated cultures was centrifuged at 5,000×g for 5 minutes. […] Nile Red fluorescence was detected between 560 and 590 nm using band-pass filtering.
# [3] = test system: P. putida strains FJPO3 and KT2440; experiment: Growth of P. putida strains on cellobiose or cellobiosan with addition of abg β-glucosidase; format: cell-based, Pseudomonas putida
# Description: Most growths were in a modified formulation of M9 minimal salts. Briefly, 6.78 g Na2PO4 (anhydrous), 3 g KH2PO4, and 0.5 g NaCl were dissolved in 750 mL deionized H2O. The pH was adjusted to 7.4 with 10 N NaOH and brought to 900 mL with H2O. The solution was autoclaved for 15 minutes at 121° C. and allowed to cool. One hundred μL of 1 M CaCl2 (100 μM final) and 2 mL of 1 M MgSO4-7H2O (2 mM Final), 1 mL of 100 mM FeSO4, (100 μM final) and 10 mL 1 M (NH4)2SO4 (10 mM final) was added. In the case of FIG. 2, 1 mM (NH4)2SO4, was used to induce mcl-PHA production.
# Growth curves were generated using a Bioscreen C automated microbiology growth curve analysis system from Growth Curves USA. Overnight cultures were diluted to 0.02 OD in a total volume of 300 μL per well. Incubations were performed at 30° C. with continuous shaking and turbidity measurements (OD420-580) were collected every 15 minutes for the duration of the experiments. Spectrophotometric blanks were subtracted from the measured values and each growth curve represents the average of three independent cultures. The maximum specific growth rate (μmax) was calculated as the maximum slope of the log phase of the growth curve over any given 4 hour period during the course of the experiment. […]
molecule,measurement,setting,value
"bgl1A: P. chrysosporium β-glucosidase, GH3, GenBank AAC26489, SEQ ID NO: 4",cleavage of cellobiosan to generate glucose and levoglucosan,[1],able to cleave cellobiosan
O[C@@H]1[C@@H](O)[C@@H]2OC[C@@H](O2)[C@H]1O [levoglucosan],growth profile of FJPO3 compared with glucose,"[2]; M9 medium, 7.5 g/L levoglucosan vs 7.5 g/L glucose, FIG. 2 Panel A",similar
same,concentration at which FJPO3 has the capacity to grow,"[2]; M9 medium, FIG. 2 Panel B",≤ 60 g/L
same,mcl-PHA production by FJPO3 (Nile Red fluorescence),"[2]; N-limited medium [M9 1mM (NH4)2SO4], levoglucosan as sole carbon source, FIG. 2 Panel C",produces mcl-PHAs
B1,cleavage of cellobiosan to generate glucose and levoglucosan,[1],able to cleave cellobiosan
B2,cleavage of cellobiosan to generate glucose and levoglucosan,[1],able to cleave cellobiosan
B3,cleavage of cellobiosan to generate glucose and levoglucosan,[1],able to cleave cellobiosan
same,growth of FJPO3 and KT2440 in M9 medium containing cellobiosan plus abg,"[3]; cellobiosan, twenty micrograms of enzyme, 30° C., FIG. 6",both FJPO3 and KT2440 are capable of utilizing the glucose component of cellobiosan
same,growth profiles of KT2440 and FJPO3 in M9 medium containing cellobiose with addition of abg,"[3]; cellobiose, FIG. 6 Panel A",virtually indistinguishable
